The results in this text go back to US20250354149, “L-RNA APTAMER-ANTISENSE OLIGONUCLEOTIDE CONJUGATES AND USES THEREOF” (CITY UNIVERSITY OF HONG KONG, published 2025).

The target in data set [1] is T1, RHAU53 peptide (DHX36 rG4-binding domain) (synthetic construct, UniProt Q9H2U1 SEQ:1-53).
T1 sequence: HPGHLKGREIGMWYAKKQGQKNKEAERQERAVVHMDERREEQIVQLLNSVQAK
The experiment in a line: EMSA; 100 nM RHAU53; binding to APP rG4 region inhibited by L-Apt.4-1c-ASO15nt(APP); data not shown; 37 C, KCl, MgCl2. The settings on record: protein: synthetic; tags: none, chemically synthesized by Synpeptide; label: 5' HEX; RNA G-quadruplex with 3' flank. On the procedure: L-Apt.4-1c-ASO15nt_{(APP)} conjugate was serial diluted, and then the conjugate and HEX APP rG4 wt region were firstly refolded by heating at 95° C. for 5 min, 25° C. for 5 min, then 4° C. for at least 30 min separately in buffer containing 150 mM KCl, 1 mM MgCl₂, 25 mM Tris-HCl (pH 7.5) and 8% sucrose separately. 48 nM DHX36 protein (SEQ ID NO: 41) (or 100 nM RHAU53 peptide (SEQ ID NO: 42)), HEX_APP rG4 wt region (SEQ ID NO: 12) and L-Apt.4-1c-ASO15nt_{(APP)} were mixed and incubated for 30 min at 37° C. for competition binding. Then, the samples were loaded and resolved in 6% (37.5:1, acrylamide/bis-acrylamide) native gel for 70min at 35 mA at 4° C. in the running buffer containing 50 mM KOAc, 25 mM Tris-HCl (pH 7.5), 1 mM MgCl₂ (for DHX36) or running at 12.5 mA for 75 min in buffer containing 0.5×TBE and 40 mM KOAc (for RHAU53). At last, gels were scanned using Typhoon laser-scanner platform (Cytiva). Gel pictures were analyzed by image J software.
For orientation: A gel shift assay detects complexes by their altered migration in electrophoresis.

A further data set concerns the target T2, DHX36 (Homo sapiens, UniProt Q9H2U1 SEQ:1-1008).
T2 chain: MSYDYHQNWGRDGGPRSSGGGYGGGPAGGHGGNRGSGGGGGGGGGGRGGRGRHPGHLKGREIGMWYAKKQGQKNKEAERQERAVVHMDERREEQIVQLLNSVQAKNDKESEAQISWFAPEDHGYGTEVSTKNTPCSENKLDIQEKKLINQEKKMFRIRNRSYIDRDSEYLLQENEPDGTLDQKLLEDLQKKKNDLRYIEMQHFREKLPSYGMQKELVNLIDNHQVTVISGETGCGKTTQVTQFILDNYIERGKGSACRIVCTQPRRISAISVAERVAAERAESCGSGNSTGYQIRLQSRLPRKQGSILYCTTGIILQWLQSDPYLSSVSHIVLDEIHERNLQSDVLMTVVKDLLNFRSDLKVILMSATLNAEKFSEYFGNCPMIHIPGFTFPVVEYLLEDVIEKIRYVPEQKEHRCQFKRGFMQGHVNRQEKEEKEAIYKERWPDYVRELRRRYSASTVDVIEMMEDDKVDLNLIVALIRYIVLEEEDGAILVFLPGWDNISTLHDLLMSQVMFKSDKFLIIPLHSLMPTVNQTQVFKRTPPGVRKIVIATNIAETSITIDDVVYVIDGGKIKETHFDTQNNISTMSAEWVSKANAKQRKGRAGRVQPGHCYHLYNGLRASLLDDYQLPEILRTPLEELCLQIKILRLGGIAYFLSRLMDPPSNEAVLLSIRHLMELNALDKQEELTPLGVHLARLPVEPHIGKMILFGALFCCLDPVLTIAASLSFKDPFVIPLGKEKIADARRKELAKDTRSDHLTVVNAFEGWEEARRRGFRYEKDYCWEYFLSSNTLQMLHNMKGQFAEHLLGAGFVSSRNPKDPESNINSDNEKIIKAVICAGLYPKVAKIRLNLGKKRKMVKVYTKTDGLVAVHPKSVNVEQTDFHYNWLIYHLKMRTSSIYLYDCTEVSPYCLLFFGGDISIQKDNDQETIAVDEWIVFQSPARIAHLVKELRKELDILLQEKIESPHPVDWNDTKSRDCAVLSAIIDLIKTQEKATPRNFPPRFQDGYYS
The experiment in a line: EMSA; strong gel shift bands with DHX36; data not shown; exact label of the oligo not stated. To be noted: label: 5' HEX; RNA G-quadruplex with 3' flank.

B1: APP rG4 wt region (HEX) (ssRNA)
RNA: GGGGCGGGUGGGGAGGGGUGCUCUGCUGGUCUUCAAUU
For the molecule B1, the binding result (in data set [1]; with DHX36) was “binds” throughout.
